Assay [1] has as its target T1, Prc protease (wild type), C-terminally His6-tagged (E. coli, UniProt P23865 23-682, Dylight 549 NHS ester on amines).
T1 construct: Prc (Tsp), periplasmic protease of Escherichia coli, 76 kDa; encoded on pTR147 (Spiers et al., 2002); also called Tsp; Prc (WT); source: E. coli DH5α harboring pTR147, purified (Ni-NTA)
T1 sequence (looked up): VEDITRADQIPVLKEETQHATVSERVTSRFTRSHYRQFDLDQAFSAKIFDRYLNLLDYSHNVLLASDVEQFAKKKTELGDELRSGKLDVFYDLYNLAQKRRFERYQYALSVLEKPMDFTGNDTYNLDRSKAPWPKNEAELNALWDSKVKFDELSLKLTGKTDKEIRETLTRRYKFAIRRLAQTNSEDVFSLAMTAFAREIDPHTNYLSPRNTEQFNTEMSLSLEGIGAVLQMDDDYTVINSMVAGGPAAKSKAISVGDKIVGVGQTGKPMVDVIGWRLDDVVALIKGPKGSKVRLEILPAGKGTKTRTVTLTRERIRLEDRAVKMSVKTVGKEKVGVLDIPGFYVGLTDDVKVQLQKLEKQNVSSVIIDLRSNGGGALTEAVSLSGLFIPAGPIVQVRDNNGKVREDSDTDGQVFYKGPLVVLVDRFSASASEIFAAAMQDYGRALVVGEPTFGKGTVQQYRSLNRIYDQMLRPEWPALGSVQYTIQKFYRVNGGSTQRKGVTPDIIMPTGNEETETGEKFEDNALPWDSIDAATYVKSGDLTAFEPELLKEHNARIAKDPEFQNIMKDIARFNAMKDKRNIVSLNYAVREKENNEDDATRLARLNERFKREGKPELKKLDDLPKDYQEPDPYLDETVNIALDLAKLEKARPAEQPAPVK
Briefly: peptide or protein array; E. coli K12 proteome array (N-terminally His6-tagged ASKA proteins spotted in duplicate on slides), blocked with 1% BSA in TBS, probed with 1 μM Dylight 549-labelled Prc variant in PBS pH 7.4 with 1% BSA, RT, 1 h; washed with TBS-T; triplicate. The conditions noted are these: both partners purified.

Assay [2] concerns the target T2, K455A-Prc, catalytically inactive Prc mutant, C-terminally His6-tagged (E. coli, UniProt P23865 23-682, K455A, Dylight 549 NHS ester on amines (array assay only)).
T2 construct: Prc (Tsp), periplasmic protease of Escherichia coli, with K455A; encoded on pTR163 (Spiers et al., 2002); The same construct was used purified and labelled on the array, and unlabelled in lysate for the co-IP; source: E. coli DH5α harboring pTR163, purified (Ni-NTA); E. coli ΔmltG-BW25113 harboring pTR163, in lysate; not shown: His6, C-terminal, kept
T2 sequence (looked up): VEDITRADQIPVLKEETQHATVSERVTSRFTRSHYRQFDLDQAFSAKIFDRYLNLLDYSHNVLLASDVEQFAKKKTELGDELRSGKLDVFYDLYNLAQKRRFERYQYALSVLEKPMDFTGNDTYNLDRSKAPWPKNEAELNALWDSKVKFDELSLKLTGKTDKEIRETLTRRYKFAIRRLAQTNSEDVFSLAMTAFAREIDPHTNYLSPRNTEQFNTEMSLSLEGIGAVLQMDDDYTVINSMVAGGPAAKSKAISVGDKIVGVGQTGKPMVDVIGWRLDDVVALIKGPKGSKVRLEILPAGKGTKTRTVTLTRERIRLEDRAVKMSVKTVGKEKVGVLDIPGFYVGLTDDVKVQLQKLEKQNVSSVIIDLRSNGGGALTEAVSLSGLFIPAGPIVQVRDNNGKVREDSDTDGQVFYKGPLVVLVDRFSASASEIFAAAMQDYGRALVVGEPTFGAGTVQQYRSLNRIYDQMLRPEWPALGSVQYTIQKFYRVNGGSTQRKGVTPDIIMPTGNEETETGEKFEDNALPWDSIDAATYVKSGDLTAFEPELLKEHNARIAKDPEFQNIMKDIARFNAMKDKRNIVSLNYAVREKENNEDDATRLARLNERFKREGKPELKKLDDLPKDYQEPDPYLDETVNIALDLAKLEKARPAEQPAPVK
Described as above. As to conditions: both partners purified.

B1: HupA, N-terminally 6xHis-tagged, from the ASKA ORF library (on the proteome array) (natural protein, E. coli K12, UniProt P0ACF0 1-90, looked up)
chain: MNKTQLIDVIAEKAELSKTQAKAALESTLAAITESLKEGDAVQLVGFGTFKVNHRAERTGRNPQTGKEIKIAAANVPAFVSGKALKDAVK
notes: ORF clone of the ASKA library; source: E. coli, ASKA library clone, purified (Ni-NTA, high-throughput)
As for B1, in assay [1], the binding result is given as “binds”.

B2: YegV, N-terminally 6xHis-tagged, from the ASKA ORF library (on the proteome array) (natural protein, E. coli K12, UniProt P76419 1-321, looked up)
chain: MSGARLHTLLPELTTRQSVMVVGAAVIDVIADAYALPWRGCDIELKQQSVNVGGCALNIAVALKRLGIEAGNALPLGQGVWAEMIRNRMAKEGLISLIDNAEGDNGWCLALVEPDGERTFMSFSGVENQWNRQWLARLTVAPGSLLYFSGYQLASPCGELLVEWLEELQDVTPFIDFGPRIGDIPDALLARIMACRPLVSLNRQEAEIAAERFALSAEITTLGKQWQEKFAAPLIVRLDKEGAWYFSNDASGCIPAFPTQVVDTIGAGDSHAGGVLAGLASGLPLADAVLLGNAVASWVVGHRGGDCAPTREELLLAHKNV
notes: YegV, putative sugar kinase, E. coli K12; ORF clone of the ASKA library; source: E. coli, ASKA library clone, purified (Ni-NTA, high-throughput)
Regarding B2, the binding result in assay [2] is recorded as “binds”.

B3: TyrA, N-terminally 6xHis-tagged, from the ASKA ORF library (on the proteome array) (natural protein)
chain: not shown
notes: TyrA, fused chorismate mutase/prephenate dehydrogenase, E. coli K12; ORF clone of the ASKA library; source: E. coli, ASKA library clone, purified (Ni-NTA, high-throughput)
With B3, the binding result in assay [2] is “binds”.

B4: YacF, N-terminally 6xHis-tagged, from the ASKA ORF library (on the proteome array) (natural protein, E. coli K12, UniProt P36680 1-247, looked up)
chain: MQTQVLFEHPLNEKMRTWLRIEFLIQQLTVNLPIVDHAGALHFFRNVSELLDVFERGEVRTELLKELDRQQRKLQTWIGVPGVDQSRIEALIQQLKAAGSVLISAPRIGQFLREDRLIALVRQRLSIPGGCCSFDLPTLHIWLHLPQAQRDSQVETWIASLNPLTQALTMVLDLIRQSAPFRKQTSLNGFYQDNGGDADLLRLNLSLDSQLYPQISGHKSRFAIRFMPLDTENGQVPERLDFELACC
notes: YacF (ZapD), cell division protein, E. coli K12; ORF clone of the ASKA library; also called ZapD; source: E. coli, ASKA library clone, purified (Ni-NTA, high-throughput)
Turning to B4, the binding result in assay [2] is reported as “binds”.

B5: YaaW, N-terminally 6xHis-tagged, from the ASKA ORF library (on the proteome array) (natural protein, E. coli K12, UniProt P75617 1-237, looked up)
chain: MNVNYLNDSDLDFLQHCSEEQLANFARLLTHNEKGKTRLSSVLMRNELFKSMEGHPEQHRRNWQLIAGELQHFGGDSIANKLRGHGKLYRAILLDVSKRLKLKADKEMSTFEIEQQLLEQFLRNTWKKMDEEHKQEFLHAVDARVNELEELLPLLMKDKLLAKGVSHLLSSQLTRILRTHAAMSVLGHGLLRGAGLGGPVGAALNGVKAVSGSAYRVTIPAVLQIACLRRMVSATQV
notes: YaaW, function E. coli K12; ORF clone of the ASKA library; source: E. coli, ASKA library clone, purified (Ni-NTA, high-throughput)
As for B5, the binding result in assay [1] and in assay [2] was “binds” in each case.

B6: RfaD, N-terminally 6xHis-tagged, from the ASKA ORF library (on the proteome array) (natural protein, E. coli K12, UniProt P67910 1-310, looked up)
chain: MIIVTGGAGFIGSNIVKALNDKGITDILVVDNLKDGTKFVNLVDLNIADYMDKEDFLIQIMAGEEFGDVEAIFHEGACSSTTEWDGKYMMDNNYQYSKELLHYCLEREIPFLYASSAATYGGRTSDFIESREYEKPLNVYGYSKFLFDEYVRQILPEANSQIVGFRYFNVYGPREGHKGSMASVAFHLNTQLNNGESPKLFEGSENFKRDFVYVGDVADVNLWFLENGVSGIFNLGTGRAESFQAVADATLAYHKKGQIEYIPFPDKLKGRYQAFTQADLTNLRAAGYDKPFKTVAEGVTEYMAWLNRDA
notes: RfaD, ADP-L-glycero-D-manno-heptose-6-epimerase, E. coli K12; ORF clone of the ASKA library; source: E. coli, ASKA library clone, purified (Ni-NTA, high-throughput)
B6: the binding result in assay [1] is “binds”.

B7: YfaU, N-terminally 6xHis-tagged, from the ASKA ORF library (on the proteome array) (natural protein, E. coli K12, UniProt P76469 1-267, looked up)
chain: MNALLSNPFKERLRKGEVQIGLWLSSTTAYMAEIAATSGYDWLLIDGEHAPNTIQDLYHQLQAVAPYASQPVIRPVEGSKPLIKQVLDIGAQTLLIPMVDTAEQARQVVSATRYPPYGERGVGASVARAARWGRIENYMAQVNDSLCLLVQVESKTALDNLDEILDVEGIDGVFIGPADLSASLGYPDNAGHPEVQRIIETSIRRIRAAGKAAGFLAVAPDMAQQCLAWGANFVAVGVDTMLYSDALDQRLAMFKSGKNGPRIKGSY
notes: YfaU (RhmA), 2-keto-3-deoxy-L-rhamnonate aldolase, E. coli K12; ORF clone of the ASKA library; also called RhmA; source: E. coli, ASKA library clone, purified (Ni-NTA, high-throughput)
With B7, the binding result in assay [1] and in assay [2] was “binds” throughout.

B8: YidA, N-terminally 6xHis-tagged, from the ASKA ORF library (on the proteome array) (natural protein, E. coli K12, UniProt P0A8Y5 1-270, looked up)
chain: MAIKLIAIDMDGTLLLPDHTISPAVKNAIAAARARGVNVVLTTGRPYAGVHNYLKELHMEQPGDYCITYNGALVQKAADGSTVAQTALSYDDYRFLEKLSREVGSHFHALDRTTLYTANRDISYYTVHESFVATIPLVFCEAEKMDPNTQFLKVMMIDEPAILDQAIARIPQEVKEKYTVLKSAPYFLEILDKRVNKGTGVKSLADVLGIKPEEIMAIGDQENDIAMIEYAGVGVAMDNAIPSVKEVANFVTKSNLEDGVAFAIEKYVLN
notes: YidA, sugar phosphatase, E. coli K12; ORF clone of the ASKA library; source: E. coli, ASKA library clone, purified (Ni-NTA, high-throughput)
Take B8: the binding result in assay [1] and in assay [2] was “binds” each time.

B9: YdhS, N-terminally 6xHis-tagged, from the ASKA ORF library (on the proteome array) (natural protein, E. coli K12, UniProt P77148 1-534, looked up)
chain: MKKIAIVGAGPTGIYTLFSLLQQQTPLSISIFEQADEAGVGMPYSDEENSKMMLANIASIEIPPIYCTYLEWLQKQEDSHLQRYGVKKETLHDRQFLPRILLGEYFRDQFLRLVDQARQQKFAVAVYESCQVTDLQITNAGVMLATNQDLPSETFDLAVIATGHVWPDEEEATRTYFPSPWSGLMEAKVDACNVGIMGTSLSGLDAAMAVAIQHGSFIEDDKQHVVFHRDNASEKLNITLLSRTGILPEADFYCPIPYEPLHIVTDQALNAEIQKGEEGLLDRVFRLIVEEIKFADPDWSQRIALESLNVDSFAQAWFAERKQRDPFDWAEKNLQEVERNKREKHTVPWRYVILRLHEAVQEIVPHLNEHDHKRFSKGLARVFIDNYAAIPSESIRRLLALREAGIIHILALGEDYKMEINESRTVLKTEDNSYSFDVFIDARGQRPLKVKDIPFPGLREQLQKTGDEIPDVGEDYTLQQPEDIRGRVAFGALPWLMHDQPFVQGLTACAEIGEAMARAVVKPASRARRRLSFD
notes: YdhS, function E. coli K12; ORF clone of the ASKA library; source: E. coli, ASKA library clone, purified (Ni-NTA, high-throughput)
Consider B9, for which, in assay [1], the binding result is listed as “binds”.

For the origin of these results see PMC7481392, “Identification of MltG as a Prc Protease Substrate Whose Dysregulation Contributes to the Conditional Growth Defect of Prc-Deficient Escherichia coli” (Frontiers in Microbiology, 2020).
